Laboratory results reported in the supplement of paper PMC9112550, “Optimization of the antimicrobial peptide Bac7 by deep mutational scanning” (BMC Biology, 2022).

System: Escherichia coli TOP10
Assay: shrunken log2 fold change of peptide-encoding DNA abundance (4.5 h post-induction vs induction); higher = less antimicrobial activity (less host growth inhibition)
Details: time post-induction: 4.5 h; library: site-saturation at positions 5, 18, 19, 20
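Note: peptides expressed intracellularly from a pBAD plasmid library in pooled LB shake-flask culture, induced with 0.3% L-arabinose, DNA abundance read by NGS, three biological replicates, DESeq2 with apeglm shrinkage.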

Sequence	shrunken log2 fold change
RRIRSRPPRLPRPRPRPVLLPRP	-0.315
RRIRCRPPRLPRPRPRPFSYPRP	-0.947
RRIRMRPPRLPRPRPRPLMLPRP	-0.0158
RRIRQRPPRLPRPRPRPIHFPRP	-0.236
RRIRSRPPRLPRPRPRPGNGPRP	-0.0508
RRIRCRPPRLPRPRPRPPHQPRP	0.746
RRIRNRPPRLPRPRPRPYPVPRP	0.00968
RRIRLRPPRLPRPRPRPGHAPRP	0.21
RRIRNRPPRLPRPRPRPSWVPRP	-0.289
RRIRLRPPRLPRPRPRPYPKPRP	-0.0574
RRIRYRPPRLPRPRPRPDWFPRP	-0.987
RRIRKRPPRLPRPRPRPEGKPRP	0.201
RRIRPRPPRLPRPRPRPHHSPRP	-0.454
RRIRTRPPRLPRPRPRPAHWPRP	0.882
RRIRRRPPRLPRPRPRPADYPRP	-0.0547
RRIRDRPPRLPRPRPRPQSLPRP	-0.0208
RRIRQRPPRLPRPRPRPGAGPRP	0.451
RRIRNRPPRLPRPRPRPGGSPRP	0.407
RRIRSRPPRLPRPRPRPVCCPRP	0.183
RRIRCRPPRLPRPRPRPGYWPRP	0.196
RRIRQRPPRLPRPRPRPKELPRP	-0.534
RRIRCRPPRLPRPRPRPYRWPRP	-0.141
RRIRSRPPRLPRPRPRPISQPRP	-0.387
RRIRCRPPRLPRPRPRPLDSPRP	-0.179
RRIRIRPPRLPRPRPRPEAIPRP	-0.0271

Sequence	shrunken log2 fold change
RRIRIRPPRLPRPRPRPGIAPRP	-0.184
RRIRLRPPRLPRPRPRPQTCPRP	-0.28
RRIRWRPPRLPRPRPRPFRPPRP	-0.165
RRIRVRPPRLPRPRPRPFHVPRP	-0.262
RRIRWRPPRLPRPRPRPSNDPRP	0.391
RRIRRRPPRLPRPRPRPFVLPRP	-0.0834
RRIRHRPPRLPRPRPRPRFEPRP	0.185
RRIRVRPPRLPRPRPRPMYNPRP	-0.315
RRIRHRPPRLPRPRPRPNIMPRP	-0.596
RRIRSRPPRLPRPRPRPNESPRP	-0.153
RRIRNRPPRLPRPRPRPSAYPRP	-0.42
RRIRYRPPRLPRPRPRPILAPRP	-0.353
RRIRMRPPRLPRPRPRPYMRPRP	0.0391
RRIRTRPPRLPRPRPRPFSHPRP	-0.399
RRIRIRPPRLPRPRPRPKKYPRP	-0.546
RRIRLRPPRLPRPRPRPGTNPRP	-0.0983
RRIRWRPPRLPRPRPRPPKHPRP	0.272
RRIRRRPPRLPRPRPRPHVFPRP	2.42
RRIRARPPRLPRPRPRPKETPRP	0.229
RRIRWRPPRLPRPRPRPLVEPRP	0.2
RRIRNRPPRLPRPRPRPMMVPRP	-0.194
RRIRKRPPRLPRPRPRPTTEPRP	0.579
RRIRGRPPRLPRPRPRPKCFPRP	0.852
RRIRNRPPRLPRPRPRPSKWPRP	-0.213
RRIRIRPPRLPRPRPRPMKVPRP	-0.00968

Sequence	shrunken log2 fold change
RRIRNRPPRLPRPRPRPHLNPRP	-0.599
RRIRYRPPRLPRPRPRPWCYPRP	-1.21
RRIRRRPPRLPRPRPRPNQKPRP	-0.128
RRIRQRPPRLPRPRPRPPIKPRP	-0.0648
RRIRMRPPRLPRPRPRPLPFPRP	-0.117
RRIRTRPPRLPRPRPRPGQSPRP	-0.267
RRIRLRPPRLPRPRPRPYDWPRP	-0.218
RRIRVRPPRLPRPRPRPDKKPRP	0.135
RRIRRRPPRLPRPRPRPKMMPRP	0.296
RRIRARPPRLPRPRPRPLNKPRP	0.028
RRIRQRPPRLPRPRPRPPQQPRP	0.497
RRIRLRPPRLPRPRPRPSHIPRP	-0.877
RRIRSRPPRLPRPRPRPCGGPRP	0.012
RRIRIRPPRLPRPRPRPTLPPRP	0.0197
RRIRSRPPRLPRPRPRPQCSPRP	-0.0935
RRIRQRPPRLPRPRPRPQFGPRP	0.0348
RRIRRRPPRLPRPRPRPCEGPRP	-0.0173
RRIRIRPPRLPRPRPRPYCWPRP	-0.185
RRIRHRPPRLPRPRPRPRGVPRP	0.335
RRIRMRPPRLPRPRPRPHHVPRP	-0.143
RRIRERPPRLPRPRPRPTVIPRP	-0.0209
RRIRDRPPRLPRPRPRPQTIPRP	-0.164
RRIRLRPPRLPRPRPRPAMYPRP	-0.139
RRIRQRPPRLPRPRPRPRPCPRP	0.409
RRIRGRPPRLPRPRPRPEYAPRP	1.26

Sequence	shrunken log2 fold change
RRIRDRPPRLPRPRPRPMWIPRP	-0.306
RRIRVRPPRLPRPRPRPYMMPRP	-0.00989
RRIRWRPPRLPRPRPRPHLLPRP	-0.66
RRIRSRPPRLPRPRPRPTFMPRP	-0.335
RRIRYRPPRLPRPRPRPKWTPRP	-0.298
RRIRLRPPRLPRPRPRPYWMPRP	-0.257
RRIRMRPPRLPRPRPRPHSLPRP	-0.0589
RRIRDRPPRLPRPRPRPSTVPRP	0.154
RRIRERPPRLPRPRPRPLENPRP	0.0225
RRIRTRPPRLPRPRPRPVIQPRP	-0.202
RRIRSRPPRLPRPRPRPHHYPRP	-0.998
RRIRKRPPRLPRPRPRPRQKPRP	-0.0264
RRIRRRPPRLPRPRPRPHERPRP	0.225
RRIRDRPPRLPRPRPRPGHMPRP	-0.0968
RRIRRRPPRLPRPRPRPDTGPRP	0.0107
RRIRERPPRLPRPRPRPKPWPRP	0.287
RRIRHRPPRLPRPRPRPPRDPRP	0.346
RRIRFRPPRLPRPRPRPSHFPRP	-0.136
RRIRKRPPRLPRPRPRPCQGPRP	-0.141
RRIRWRPPRLPRPRPRPQYPPRP	-0.139
RRIRCRPPRLPRPRPRPTFHPRP	-0.366
RRIRIRPPRLPRPRPRPVKRPRP	-0.09
RRIRRRPPRLPRPRPRPRVFPRP	0.849
RRIRIRPPRLPRPRPRPMTNPRP	-0.108
RRIRQRPPRLPRPRPRPRYLPRP	-0.422

Sequence	shrunken log2 fold change
RRIRRRPPRLPRPRPRPVSEPRP	0.34
RRIRMRPPRLPRPRPRPWPRPRP	1.25
RRIRHRPPRLPRPRPRPNLMPRP	0.0972
RRIRFRPPRLPRPRPRPDGWPRP	0.13
RRIRQRPPRLPRPRPRPWYVPRP	-0.0198
RRIRPRPPRLPRPRPRPVCHPRP	-0.0724
RRIRYRPPRLPRPRPRPISGPRP	0.0356
RRIRPRPPRLPRPRPRPDDTPRP	-0.085
RRIRGRPPRLPRPRPRPFGPPRP	0.355
RRIRYRPPRLPRPRPRPESHPRP	-0.226
RRIRCRPPRLPRPRPRPLMHPRP	-0.264
RRIRQRPPRLPRPRPRPGSRPRP	0.166
RRIRHRPPRLPRPRPRPHQAPRP	-0.0163
RRIRFRPPRLPRPRPRPDFAPRP	0.0852
RRIRNRPPRLPRPRPRPACWPRP	0.449
RRIRNRPPRLPRPRPRPQYEPRP	-0.117
RRIRTRPPRLPRPRPRPIRIPRP	-0.202
RRIRWRPPRLPRPRPRPVVHPRP	-0.102
RRIRFRPPRLPRPRPRPYVPPRP	-0.238
RRIRIRPPRLPRPRPRPANGPRP	0.0224
RRIRPRPPRLPRPRPRPIQYPRP	-0.642
RRIRGRPPRLPRPRPRPQFYPRP	0.0417
RRIRYRPPRLPRPRPRPSDCPRP	-0.0875
RRIRVRPPRLPRPRPRPKHCPRP	0.0148
RRIRRRPPRLPRPRPRPKRRPRP	0.525
